Target: ALFA peptide and His8-tagged ZAC orthologue from Oryzias latipes (OlZAC) (Oryzias latipes)
Experiment: negative staining EM with 2D classification; purified OlZAC reconstituted into NAPol amphipol, stained with 2% uranyl acetate, Talos L120C at 120 kV, 2D classification in RELION 3.0

stoichiometry N: 5
Substance: ALFA peptide and His8-tagged ZAC orthologue from Oryzias latipes (OlZAC) (receptor)

Source: publication PMC7979870
